Results on 21 molecules are retold here after patent publication US20250115669A1, “FGFR1/KLB Targeting Agonistic Antigen-Binding Proteins and Conjugates Thereof with GLP-1R Agonistic Peptides” (SANOFI, priority 2020, published 2025).

Numbering of substitutions follows the chain as printed. Numbers in names are those of the source.

Sequences and labels used below:
T1: human beta-Klotho (Homo sapiens, UniProt Q86Z14)
T1 sequence (Q86Z14 1-1044): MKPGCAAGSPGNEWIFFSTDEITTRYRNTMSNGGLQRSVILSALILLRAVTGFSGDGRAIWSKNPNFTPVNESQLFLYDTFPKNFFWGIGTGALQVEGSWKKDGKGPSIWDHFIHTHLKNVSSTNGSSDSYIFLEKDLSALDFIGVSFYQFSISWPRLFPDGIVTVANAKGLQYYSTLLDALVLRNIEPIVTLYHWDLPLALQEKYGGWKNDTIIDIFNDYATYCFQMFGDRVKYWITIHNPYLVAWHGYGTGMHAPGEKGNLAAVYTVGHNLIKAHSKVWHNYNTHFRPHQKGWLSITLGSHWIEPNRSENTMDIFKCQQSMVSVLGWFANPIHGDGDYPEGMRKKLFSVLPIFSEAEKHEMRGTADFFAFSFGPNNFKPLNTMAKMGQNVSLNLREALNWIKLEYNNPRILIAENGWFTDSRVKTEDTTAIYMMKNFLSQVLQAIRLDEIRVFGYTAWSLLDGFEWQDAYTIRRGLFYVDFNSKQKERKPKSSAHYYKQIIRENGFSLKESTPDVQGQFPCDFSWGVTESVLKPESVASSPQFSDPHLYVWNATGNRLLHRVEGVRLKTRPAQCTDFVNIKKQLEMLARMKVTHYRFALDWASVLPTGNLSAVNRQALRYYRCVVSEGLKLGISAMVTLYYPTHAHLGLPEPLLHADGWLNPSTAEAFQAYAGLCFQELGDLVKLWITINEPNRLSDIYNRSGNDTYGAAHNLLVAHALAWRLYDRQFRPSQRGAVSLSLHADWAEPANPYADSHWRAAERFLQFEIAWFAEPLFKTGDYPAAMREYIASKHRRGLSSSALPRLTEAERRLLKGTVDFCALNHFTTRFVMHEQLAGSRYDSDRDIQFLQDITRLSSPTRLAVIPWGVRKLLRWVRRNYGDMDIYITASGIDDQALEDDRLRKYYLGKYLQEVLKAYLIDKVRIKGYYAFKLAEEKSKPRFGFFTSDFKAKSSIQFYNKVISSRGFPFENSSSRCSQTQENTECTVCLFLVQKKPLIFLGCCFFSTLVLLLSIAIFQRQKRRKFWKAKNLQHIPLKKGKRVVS

B1: Ab0396: IgG4 PE; 16H7 VL (Y48del, D95A, W90F); 16H7 VH (M34V, H52S, F54W, I83T, D109E) (antibody)
VH: QVTLKESGPVLVKPTETLTLTCTVSGFSLNNARVGVSWIRQPPGKALEWLASIWSNDEKSYSTSLKSRLTISKDTSKSQVVLTMTNMDPVDTATYYCARSVVTGGYYYEGMDVWGQGTTVTVSS
light: SYVLTQPPSVSVAPGQTARITCGGNNIGSESVHWYQQKPGQAPVLVVDDSDRPSGIPERFSGSNSGNTATLTISRVEAGDEADYYCQVFDGNSAHVVFGGGTKLTVLGQPKANPTVTLFPPSSEELQANKATLVCLISDFYPGAVTVAWKADGSPVKAGVETTKPSKQSNNKYAASSYLSLTPEQWKSHRSYSCQVTHEGSTVEKTVAPTECS
B2: Ab0330: IgG4 PE; 16H7 VL (N25S, D49S, D50E, D91A, N93E); 16H7 VH (M34V, I83T, D109E) (antibody)
VH: B1 VH with S52H, W54F
light: SYVLTQPPSVSVAPGQTARITCGGSNIGSESVHWYQQKPGQAPVLVVYSESDRPSGIPERFSGSNSGNTATLTISRVEAGDEADYYCQVWAGESDHVVFGGGTKLTVLGQPKANPTVTLFPPSSEELQANKATLVCLISDFYPGAVTVAWKADGSPVKAGVETTKPSKQSNNKYAASSYLSLTPEQWKSHRSYSCQVTHEGSTVEKTVAPTECS
B3: Ab0406: IgG4 PE; 16H7 VL (Y48del, D95T, W90F, S1C, S94C); 16H7 VH (M34V, H52S, F54W, I83T, D109E) (antibody)
VH: B1 VH
light: B1 light with S1C, S93C, A94T
B4: Ab0405: IgG4 PE; 16H7 VL (Y48del, D95T, W90F); 16H7 VH (M34V, H52S, F54W, I83T, D109E) (antibody)
VH: B1 VH
light: B1 light with A94T
B5: Ab0329: IgG4 PE; 16H7 VL (N25S, D49Y, D50S, D91A, N93S); 16H7 VH (M34V, I83T, D109E) (antibody)
VH: B1 VH with S52H, W54F
light: B2 light with S49Y, E50S, E93S
B6: Ab0402: IgG4 PE; 16H7 VL (Y48del, D95A, W90F, S94C, H96C); 16H7 VH (M34V, H52W, I83T, D109E) (antibody)
VH: B1 VH with S52W, W54F
light: B1 light with S93C, H95C
B7: Ab0400: IgG4 PE; 16H7 VL (Y48del, D95A, W90F, S94C, H96C); 16H7 VH (M34V, H52S, F54W, I83T, D109E) (antibody)
VH: B1 VH
light: B1 light with S93C, H95C
B8: Ab0410: IgG4 PE; 16H7 VL (Y48del, D95S, W90Y); 16H7 VH (M34V, I83T, D109E) (antibody)
VH: B1 VH with S52H, W54F
light: B1 light with F89Y, A94S
B9: Ab0408: IgG4 PE; 16H7 VL (Y48del, D95T, W90F); 16H7 VH (M34V, H52W, I83T, D109E) (antibody)
VH: B1 VH with S52W, W54F
light: B1 light with A94T
B10: Ab0328: IgG4 PE; 16H7 VL (N25S, D49Y, D50A, D91A, N93S); 16H7 VH (M34V, I83T, D109E) (antibody)
VH: B1 VH with S52H, W54F
light: B2 light with S49Y, E50A, E93S
B11: Ab0399: IgG4 PE; 16H7 VL (Y48del, D95A, W90F, S94C, H96C); 16H7 VH (M34V, F54W, I83T, D109E) (antibody)
VH: B1 VH with S52H
light: B1 light with S93C, H95C
B12: Ab0332: IgG4 PE; 16H7 VL (N25S, D49S, D50E, D91E, N93A); 16H7 VH (M34V, I83T, D109E) (antibody)
VH: B1 VH with S52H, W54F
light: B2 light with A91E, E93A
B13: Ab0416: IgG4 PE; 16H7 VL (N25S, D49Y, D50E, D91E, N93E); 16H7 VH (M34V, I83T, D109E) (antibody)
VH: B1 VH with S52H, W54F
light: B2 light with S49Y, A91E
B14: Ab0401: IgG4 PE; 16H7 VL (Y48del, D95A, W90F); 16H7 VH (M34V, H52W, I83T, D109E) (antibody)
VH: B1 VH with S52W, W54F
light: B1 light
B15: Ab0327: IgG4 PE; 16H7 VL (N25S, D49Y, D50Y, D91E, N93E); 16H7 VH (M34V, I83T, D109E) (antibody)
VH: B1 VH with S52H, W54F
light: B2 light with S49Y, E50Y, A91E
B16: Ab0398: IgG4 PE; 16H7 VL (Y48del, D95A, W90F, S1C, S94C); 16H7 VH (M34V, H52S, F54W, I83T, D109E) (antibody)
VH: B1 VH
light: B1 light with S1C, S93C
B17: Ab0417: IgG4 PE; 16H7 VL (N25S, D49Y, D50E, D91H, N93E); 16H7 VH (M34V, I83T, D109E) (antibody)
VH: B1 VH with S52H, W54F
light: B2 light with S49Y, A91H
B18: Ab0397: IgG4 PE; 16H7 VL (Y48del, D95A, W90F, S1C, S94C); 16H7 VH (M34V, F54W, I83T, D109E) (antibody)
VH: B1 VH with S52H
light: B1 light with S1C, S93C
B19: Ab0404: IgG4 PE; 16H7 VL (Y48del, D95T, W90F); 16H7 VH (M34V, F54W, I83T, D109E) (antibody)
VH: B1 VH with S52H
light: B1 light with A94T
B20: Ab0403: IgG4 PE; 16H7 VL (Y48del, D95A, W90F, S1C, S94C); 16H7 VH (M34V, H52W, I83T, D109E) (antibody)
VH: B1 VH with S52W, W54F
light: B1 light with S1C, S93C
B21: Ab0326: IgG4 PE; 16H7 VL (N25S, D49Y, D50E, D91E, N93S); 16H7 VH (M34V, I83T, D109E) (antibody)
VH: B1 VH with S52H, W54F
light: B2 light with S49Y, A91E, E93S

The target of the assay is T1, human beta-Klotho. The assay is described as follows: SPR off-rate screening of antibody mutants (human beta-Klotho captured by anti-His antibody). The class given is binding. The following applies: mean, n=3. As for the experimental part: Screening of antibody mutants for binding to human beta-Klotho was determined in a different SPR assay set up. Human beta-Klotho was affinity captured by an anti-His antibody (from His capture kit, GE Healthcare) that was immobilized to a series S CM5 chip (GE Healthcare) by amine reactive coupling as described above. The antibody samples were used as analytes at 50 nmol/L concentration. Association time was 240 sec and dissociation time was 300 sec. Chip surfaces were regenerated using the regeneration solution supplied with the His capture kit. The off-rates (kd) were determined using single exponential fitting in the Biacore 8K Evaluation Software version 1.1.1.7442 (GE Healthcare).
As for B1, the “koff human KLB” value is on record as “no binding”.

As for B2, the “koff human KLB” value is “invalid fit”.

B3: the “koff human KLB” value is “no binding”.

With B4, the “koff human KLB” value is reported as “no binding”.

On to B5, for which the “koff human KLB” value is “invalid fit”.

Consider B6, for which the “koff human KLB” value is on record as “no binding”.

With B7, the “koff human KLB” value is listed as “no binding”.

For the molecule B8, the “koff human KLB” value was “no binding”.

Turning to B9, the “koff human KLB” value is on record as “no binding”.

For the molecule B10, the “koff human KLB” value is recorded as “invalid fit”.

On to B11, for which the “koff human KLB” value is given as “no binding”.

Regarding B12, the “koff human KLB” value is 0.00143 s⁻¹.

On to B13, for which the “koff human KLB” value is 0.00107 s⁻¹.

Consider B14, for which the “koff human KLB” value is given as “no binding”.

Consider B15, for which the “koff human KLB” value came to 0.0003459 s⁻¹.

With B16, the “koff human KLB” value is “no binding”.

On to B17, for which the “koff human KLB” value was 0.0003027 s⁻¹.

For B18, the “koff human KLB” value was “no binding”.

Take B19: the “koff human KLB” value was “no binding”.

Regarding B20, the “koff human KLB” value is recorded as “no binding”.

Regarding B21, the “koff human KLB” value is 0.00175 s⁻¹.
